Numbered stars: 1 amine (or outer) side, 2 acyl side, 3 side chain; on linkers, the order of the positions; unused ones are H or OH. Bridge positions count the residues as written; N and C are the ends. Square brackets hold non-standard residues; d marks the D form. Primed or numbered codes have the meaning given here. Side chains are listed from the residue outwards. Peptide text beside a SMILES is read from it. * marks the point of attachment. FITC′ = 5(6)-fluoresceinthioureido on Lys N-epsilon (Lys(FITC)); Pro(trans-4-NH2) = O=C([C@@H]1C[C@@H](N[*:3])CN1[*:1])[*:2]; 5FAM = O=C1OC2(c3ccc(O)cc3Oc3cc(O)ccc32)c2ccc(C(=O)*)cc21; Dansyl = CN(C)c1cccc2c(S(=O)(=O)*)cccc12; 2Nal = N[C@@H](Cc1ccc2ccccc2c1)C(=O)O; Cit = NC(=O)NCCC[C@H](N)C(=O)O; Ahx = NCCCCCC(=O)O
System: human red blood cells (hRBC)
Test: Hemolysis
Assay type: cell-based
Details: percent hemolysis; 100 μM peptide, 20% v/v hRBC, 1 hour at 37° C.
Procedure: The peptides were tested for their hemolytic activity against human red blood cells (hRBC). Fresh hRBC were washed three times with phosphate buffered saline (PBS) by centrifugation for 10 min at 2000×g. Peptides at a concentration of 100 μM were incubated with 20% v/v hRBC for 1 hour at 37° C. The final erythrocyte concentration was approximately 0.9×10^9 cells per ml. A value of 0% resp. 100% cell lysis was determined by incubation of the hRBC in the presence of PBS alone and respectively 0.1% Triton X-100 in H2O. The samples were centrifuged and the supernatant was 20-fold diluted in PBS buffer and the optical density (OD) of the sample at […] was measured. The 100% lysis value (0D540H20) gave an OD540 of approximately 1.3-1.8. Percent hemolysis was calculated as follows: (0D540peptide/OD540H20)×100%.

| Molecule | Hemolysis at 100 μM |
| --- | --- |
| CN(C)c1cccc2c(S(=O)(=O)NCCCC[C@@H]3NC(=O)[C@H](CCCNC(N)=O)NC(=O)[C@H](Cc4ccc(O)cc4)NC(=O)[C@@H]4CSSC[C@H](NC(=O)[C@H](CCCNC(N)=O)NC(=O)[C@H](CCCNC(=N)N)NC(=O)[C@H](Cc5ccc(O)cc5)NC(=O)[C@@H]5CCCN5C(=O)[C@H]5CCCN5C3=O)C(=O)N[C@@H](CCCNC(=N)N)C(=O)NCC(=O)N3CCC[C@@H]3C(=O)N[C@@H](CCCNC(=N)N)C(=O)N[C@@H](CCCNC(=N)N)C(=O)N[C@@H](Cc3c[nH]c5ccccc35)C(=O)N4)cccc12 [Example 1] (cyclo(YR[Cit]CRG[dP]RRWCY[Cit]K(Dansyl)[dP]P); disulfide 4-11) | 0 |

System: HELA cells
Test: Cytotoxicity assay (MTT reduction)
Assay type: cell-based
Details: 48 hours incubation, peptide 12.5, 25 and 50 μM
Procedure: The cytotoxicity of the peptides to HELA cells (Acc57) and COS-7 cells (CRL-1651) was determined using the MTT reduction assay [see ref. 5 and 6, below]. Briefly the method was as follows: HELA cells and COS-7 cells were seeded at 7.0·10^3 and, respectively, 4.5·10^3 cells per well and grown in 96-well microtiter plates for 24 hours at 37° C. at 5% CO2. At this point, time zero (Tz) was determined by MTT reduction (see below). The supernatant of the remaining wells was discarded, and fresh medium and the peptides in serial dilutions of 12.5, 25 and 50 μM were pipetted into the wells. Each peptide concentration was assayed in triplicate. Incubation of the cells was continued for 48 hours at 37° C. at 5% CO2. Wells were then washed once with PBS, and subsequently 100 μl MTT reagent (0.5 mg/mL in medium RPMI1640 and, respectively, DMEM) was added to the wells. This was incubated at 37° C. for 2 hours and subsequently the medium was aspirated and 100 μl isopropanol was added to each well. The absorbance at 595 nm of the solubilized product was measured (OD595peptide). For each concentration averages were calculated from triplicates. The percentage of growth was calculated as follows: (OD595peptide-OD595Tz-OD595Empty well)/(OD595Tz-OD595Empty well)×100% and was plotted for each peptide concentration. […]

| Molecule | Cytotoxicity LC50/GI50 Hela cells |
| --- | --- |
| CN(C)c1cccc2c(S(=O)(=O)NCCCC[C@@H]3NC(=O)[C@H](CCCNC(N)=O)NC(=O)[C@H](Cc4ccc(O)cc4)NC(=O)[C@@H]4CSSC[C@H](NC(=O)[C@H](CCCNC(N)=O)NC(=O)[C@H](CCCNC(=N)N)NC(=O)[C@H](Cc5ccc(O)cc5)NC(=O)[C@@H]5CCCN5C(=O)[C@H]5CCCN5C3=O)C(=O)N[C@@H](CCCNC(=N)N)C(=O)NCC(=O)N3CCC[C@@H]3C(=O)N[C@@H](CCCNC(=N)N)C(=O)N[C@@H](CCCNC(=N)N)C(=O)N[C@@H](Cc3c[nH]c5ccccc35)C(=O)N4)cccc12 [Example 1] (cyclo(YR[Cit]CRG[dP]RRWCY[Cit]K(Dansyl)[dP]P); disulfide 4-11) | 31 |

Biological target: T1, human CXCR4 (human, UniProt P61073 1-352)
Test: cell-based or functional assay
Details: not given

T1 sequence (P61073 whole entry): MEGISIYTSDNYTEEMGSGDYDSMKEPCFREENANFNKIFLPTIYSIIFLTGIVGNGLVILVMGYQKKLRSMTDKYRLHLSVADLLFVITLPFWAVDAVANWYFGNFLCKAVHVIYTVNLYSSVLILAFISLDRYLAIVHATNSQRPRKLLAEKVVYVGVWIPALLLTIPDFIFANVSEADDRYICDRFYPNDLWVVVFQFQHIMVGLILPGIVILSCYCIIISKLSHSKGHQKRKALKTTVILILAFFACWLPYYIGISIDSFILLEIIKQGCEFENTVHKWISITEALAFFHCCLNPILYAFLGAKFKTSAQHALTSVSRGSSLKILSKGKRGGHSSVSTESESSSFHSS

| Molecule | IC50 (nM) Ca2+ assay (calcium mobilization induced by 10 nM SDF-1) |
| --- | --- |
| cyclo(YRKCRG[dP]RRWCY[Cit]Q) (disulfide 4-11; not fully specified (residue 3, C-terminus)) [Example 5] | 4.9 nM |
| cyclo(YR[Cit]CRG[dP]RRWCY[Cit]Q) (disulfide 4-11; not fully specified (C-terminus), the dye sits on the template; also called Ex. 4) [Example 4] | 13.4 nM |
| cyclo(YR[Cit]CRG[dP]RRWCY[Cit]K(Dansyl)) (disulfide 4-11; not fully specified (C-terminus)) [Example 1] | 122 nM |
| cyclo(HHQCSA[dP]FRYCYQK(FITC′)) (disulfide 4-11; not fully specified (C-terminus)) [Example 11] | 27.5 nM |
| cyclo(YHYCSA[dP]FRYCYQK(FITC′)) (disulfide 4-11; not fully specified (C-terminus)) [Example 18] | > 500 nM |
| cyclo(KR[Cit]CRG[dP]RRWCY[Cit]Q) (disulfide 4-11; not fully specified (residue 1, C-terminus)) [Example 3] | 16.4 nM |
| cyclo(YRTCRG[dP]RRYCYQK(FITC′)) (disulfide 4-11; not fully specified (C-terminus)) [Example 15] | 6 nM |
| cyclo(YRTCRA[dP]RRYCYQK(FITC′)) (disulfide 4-11; not fully specified (C-terminus)) [Example 16] | 4.2 nM |
| cyclo(SHYCRA[dP]FRFCYQK(FITC′)) (disulfide 4-11; not fully specified (C-terminus)) [Example 14] | 30.4 nM |
| cyclo(YK[Cit]CRG[dP]RRWCY[Cit]Q) (disulfide 4-11; not fully specified (residue 2, C-terminus)) [Example 9] | 500 nM |
| cyclo(YRTCRG[dP]RR[2Nal]CY[Cit]K) (disulfide 4-11; not fully specified (residue 14, C-terminus)) [Example 6] | 37.4 nM |
| cyclo(YRTCRG[dP]RR[2Nal]CY[Cit]K(FITC′)) (disulfide 4-11; not fully specified (C-terminus)) [Example 7] | 0.9 nM |
| cyclo(YR[Cit]CRG[dP]RRWCYKQ) (disulfide 4-11; not fully specified (residue 13, C-terminus)) [Example 8] | 9.7 nM |
| cyclo(LHTCRA[dP]RRYCYQK(FITC′)) (disulfide 4-11; not fully specified (C-terminus)) [Example 12] | 6.9 nM |
| cyclo(HHYCRA[dP]FRFCYQK(FITC′)) (disulfide 4-11; not fully specified (C-terminus)) [Example 13] | 29 nM |
| cyclo(YRYCRA[dP]FRFCYQK(FITC′)) (disulfide 4-11; not fully specified (C-terminus)) [Example 17] | 21.8 nM |

Biological target: T1, human CXCR4
Test: FACS at 530 nm, CXCR4 expressing cells against untransfected cells incubated with the dye conjugate
Details: not given
Procedure: (§1) CXCR4 expressing cells (5 ×10^6/ml) [see references 1, 2 and 3, below] were incubated for 1 hour at 4° C. in a buffer containing HBSS+1% BSA with or without peptidomimetic-dye conjugates at the appropriate concentrations. After this incubation, the cells were washed twice in the same buffer and resuspended at 4 ×10^6/ml in PBS and kept on ice until measurements were made. All measurements were made on a BD FACSCalibur™ instrument [see ref 4 below] at a wavelength of 530 nm and a total of 10,000 events were counted for each condition. Unlabeled CXCR4 cells and untransfected 300-19 cells were used to establish an appropriate gate for scoring positive and negative events. Four-parameter curve fitting was made from plots of % gated cells vs. concentration of fluorescent compound using Grafit (Erithacus Software).
The dotted line plot is the histogram obtained from the CXCR4 expressing cells incubated with the compound. The shift to the right on the intensity scale indicates a ~5-fold increase in fluorescence with >80% of the cells being positive for peptidomimetic-dye conjugates.

| Molecule | fold increase in fluorescence |
| --- | --- |
| cyclo(YR[Cit]CRG[dP]RRWCY[Cit]Q) (disulfide 4-11; not fully specified (C-terminus), the dye sits on the template; also called Ex. 4) [Example 4] | ~5 fold |

Biological target: T2, CXCR4 expressing cells (Homo sapiens, UniProt P61073)
T2 construct: expressed in transfected cells; host or cells: 300-19 cells (mouse pre-B), CXCR4 transfected
Test: FACS analysis, labeling of CXCR4 expressing cells
Assay type: binding
Details: FIG. 1; FACS fluorescence intensity at 530 nm, 10,000 cells
Procedure: as §1, with “(5×10^6/ml)” for “(5 ×10^6/ml)”, “4×10^6/ml” for “4 ×10^6/ml”
(§2) The dotted line plot is the histogram obtained from the CXCR4 expressing cells incubated with the compound. The shift to the right on the intensity scale indicates a ˜5-fold increase in fluorescence with >80% of the cells being positive for peptidomimetic-dye conjugates.

T2 sequence (P61073 whole entry): as above

| Molecule | increase in fluorescence (CXCR4 expressing vs untransfected cells) |
| --- | --- |
| N=C(N)NCCC[C@@H]1NC(=O)[C@@H]2CSSC[C@H](NC(=O)[C@H](Cc3c[nH]c4ccccc34)NC(=O)[C@H](CCCNC(=N)N)NC(=O)[C@H](CCCNC(=N)N)NC(=O)[C@H]3CCCN3C(=O)CNC1=O)C(=O)N[C@@H](Cc1ccc(O)cc1)C(=O)N[C@@H](CCCNC(N)=O)C(=O)N[C@@H](CCC(N)=O)C(=O)N1CCC[C@@H]1C(=O)N1C[C@H](NC(=O)CCCCCNC(=O)c3ccc4c(c3)C(=O)OC43c4ccc(O)cc4Oc4cc(O)ccc43)C[C@H]1C(=O)N[C@@H](Cc1ccc(O)cc1)C(=O)N[C@@H](CCCNC(=N)N)C(=O)N[C@@H](CCCNC(N)=O)C(=O)N2 [Example 4] (cyclo(CRG[dP]RRWCY[Cit]Q[dP][Pro(trans-4-NH2)]([Ahx-5FAM])YR[Cit]); disulfide 1-8) | ~5 fold |

System: untransfected 300-19 cells
Test: FACS analysis, untransfected cells (non-specific binding)
Parameters: species or system mouse
Details: FIG. 1; FACS at 530 nm, 10,000 cells; background/non-specific binding
Procedure: as §1, with “(5×10^6/ml)” for “(5 ×10^6/ml)”, “4×10^6/ml” for “4 ×10^6/ml”
as §2

| Molecule | cells binding compound (untransfected cells) |
| --- | --- |
| N=C(N)NCCC[C@@H]1NC(=O)[C@@H]2CSSC[C@H](NC(=O)[C@H](Cc3c[nH]c4ccccc34)NC(=O)[C@H](CCCNC(=N)N)NC(=O)[C@H](CCCNC(=N)N)NC(=O)[C@H]3CCCN3C(=O)CNC1=O)C(=O)N[C@@H](Cc1ccc(O)cc1)C(=O)N[C@@H](CCCNC(N)=O)C(=O)N[C@@H](CCC(N)=O)C(=O)N1CCC[C@@H]1C(=O)N1C[C@H](NC(=O)CCCCCNC(=O)c3ccc4c(c3)C(=O)OC43c4ccc(O)cc4Oc4cc(O)ccc43)C[C@H]1C(=O)N[C@@H](Cc1ccc(O)cc1)C(=O)N[C@@H](CCCNC(=N)N)C(=O)N[C@@H](CCCNC(N)=O)C(=O)N2 [Example 4] (cyclo(CRG[dP]RRWCY[Cit]Q[dP][Pro(trans-4-NH2)]([Ahx-5FAM])YR[Cit]); disulfide 1-8) | 0.7% |
